Test results taken from patent US20090047262.

What was measured:
[1] = test system: T1, FLAG epitope-tagged CIITA IF1 protein (f:CIITA1)
T1 sequence: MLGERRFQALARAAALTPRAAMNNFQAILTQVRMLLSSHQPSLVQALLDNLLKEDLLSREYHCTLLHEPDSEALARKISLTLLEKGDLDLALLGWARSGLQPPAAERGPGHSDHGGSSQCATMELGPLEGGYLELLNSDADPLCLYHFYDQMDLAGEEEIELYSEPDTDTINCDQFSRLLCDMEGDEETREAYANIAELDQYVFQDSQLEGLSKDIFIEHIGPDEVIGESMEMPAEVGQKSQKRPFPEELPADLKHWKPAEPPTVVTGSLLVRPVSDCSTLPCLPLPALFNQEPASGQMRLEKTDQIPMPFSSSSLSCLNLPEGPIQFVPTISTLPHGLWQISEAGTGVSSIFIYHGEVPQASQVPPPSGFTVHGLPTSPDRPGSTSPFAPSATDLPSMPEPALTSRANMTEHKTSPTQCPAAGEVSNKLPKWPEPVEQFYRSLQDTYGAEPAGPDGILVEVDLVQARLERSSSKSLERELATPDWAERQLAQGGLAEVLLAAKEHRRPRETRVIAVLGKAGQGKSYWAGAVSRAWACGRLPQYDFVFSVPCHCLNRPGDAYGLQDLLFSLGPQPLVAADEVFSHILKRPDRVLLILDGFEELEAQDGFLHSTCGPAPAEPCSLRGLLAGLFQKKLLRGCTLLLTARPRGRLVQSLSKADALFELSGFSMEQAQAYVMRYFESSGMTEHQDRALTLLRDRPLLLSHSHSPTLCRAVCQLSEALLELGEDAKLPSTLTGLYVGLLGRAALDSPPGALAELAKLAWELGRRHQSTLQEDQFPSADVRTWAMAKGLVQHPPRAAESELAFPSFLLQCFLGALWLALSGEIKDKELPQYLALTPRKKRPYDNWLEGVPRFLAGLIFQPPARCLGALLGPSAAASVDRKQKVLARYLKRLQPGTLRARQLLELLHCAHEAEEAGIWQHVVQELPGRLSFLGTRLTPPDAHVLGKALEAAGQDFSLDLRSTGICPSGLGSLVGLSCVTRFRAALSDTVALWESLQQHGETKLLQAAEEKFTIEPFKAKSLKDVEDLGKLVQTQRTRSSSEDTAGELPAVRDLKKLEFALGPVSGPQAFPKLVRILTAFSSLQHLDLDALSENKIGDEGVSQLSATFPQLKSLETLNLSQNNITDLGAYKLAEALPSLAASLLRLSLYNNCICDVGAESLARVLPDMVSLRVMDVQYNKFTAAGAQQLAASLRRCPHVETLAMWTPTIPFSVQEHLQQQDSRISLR

[2] = test system: mutant f:CIITA1(S357A) protein (FLAG epitope-tagged CIITA isoform 1 with serine 357 changed to alanine)

**Q.** Which “in vitro kinase assay, appearance of the upper (phosphorylated) band” value [1] does the source give for Erk1/2 kinase here?
**A.** Its value is “as indicated by the appearance of the upper band, Erk1/2 phosphorylated f:CIITA1 protein”.

**Q.** What about the “in vitro kinase assay, appearance of the upper (phosphorylated) band” value [2] of the same substance?
**A.** Its value is “Erk1/2 did not phosphorylate the mutant f:CIITA1(S357A) protein, which was confirmed by the absence of the upper band”.
